From patent US20090238814A1 come the findings set out here.

For assay [1], the target named is concanavalin A (Canavalia ensiformis, ConA)-sepharose 4B (Canavalia ensiformis) (UniProt P02866). Briefly: ConA-sepharose lectin affinity chromatography, enzyme activity of fractions.
Assay [2] deals with wheat germ agglutinin (Triticum vulgaris, WGA)-agarose CL-4B (Triticum vulgaris) (UniProt P10968). Briefly: WGA-agarose lectin affinity chromatography, eluted with 0.5 M GlcNAc.
For assay [3], the target named is concanavalin A (Canavalia ensiformis, ConA)-sepharose 4B (Canavalia ensiformis) (UniProt P02866). The experiment in a line: ConA-sepharose lectin affinity chromatography, eluted with 0.01 M alpha-methyl-D-mannopyranoside.
For assay [4] the target is unchanged. Briefly: ConA-sepharose lectin affinity chromatography, eluted with 0.5 M alpha-methyl-D-mannopyranoside.
Assay [5] concerns the target wheat germ agglutinin (Triticum vulgaris, WGA)-agarose CL-4B (Triticum vulgaris) (UniProt P10968). Briefly: WGA-agarose lectin affinity chromatography, enzyme activity of fractions.
Assay [6] shares this target. Briefly: WGA-agarose lectin affinity chromatography, eluted with 0.1 M GlcNAc.
Assay [7] has the same target. Briefly: WGA-agarose lectin affinity chromatography after neuraminidase digestion, eluted with 0.1 M GlcNAc.
Assay [8] shares this target. The experiment in a line: WGA-agarose lectin affinity chromatography after neuraminidase digestion, eluted with 0.5 M GlcNAc.
Assay [9] has the same target. The experiment in a line: WGA-agarose lectin affinity chromatography after neuraminidase digestion of the enzyme.
Assay [10] shares this target. The experiment in a line: WGA-agarose lectin affinity chromatography.

UniProt P10968, sequence (P10968 27-197): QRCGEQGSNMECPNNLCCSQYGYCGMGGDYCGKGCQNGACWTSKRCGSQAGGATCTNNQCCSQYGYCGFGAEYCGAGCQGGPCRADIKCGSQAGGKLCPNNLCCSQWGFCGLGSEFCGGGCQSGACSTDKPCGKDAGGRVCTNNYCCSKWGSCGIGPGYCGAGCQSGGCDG

Take “CD6-TNSALP (human TNSALP anchorless at the C-terminal tagged with a stretch of six L-Asp) (from UniProt P05186 18-505) (enzyme)”: the percent of relative activity in Unbound fraction is 4% in [1] and 3% in [5]. For the same substance, the values for the percent of relative activity in Strongly Bound fraction in [2] and in assay [4] were 65% and 36%, respectively. Also, the percent of relative activity in Weakly Bound fraction in assay [3] was 60%; in [6] it was 32%.

For the substance “CD6-TNSALP after neuraminidase digestion (from UniProt P05186 18-505) (enzyme)”, the percent of relative activity in Weakly Bound fraction in [7] stood at 11%. In [8], this substance had a percent of relative activity in Strongly Bound fraction of 86%. The same substance showed a percent of relative activity in Unbound fraction in assay [9] of 2%.

On to “CD8-TNSALP (human TNSALP anchorless at the C-terminal tagged with a stretch of eight L-Asp) (from UniProt P05186 18-505) (enzyme)”, for which the percent of relative activity in Unbound fraction in assay [1] came to 2%; in assay [5], 1%. Further, the percent of relative activity in Strongly Bound fraction stood at 76% in [2] and 39% in assay [4]. The percent of relative activity in Weakly Bound fraction in assay [3] amounted to 59%; in assay [6], 23%.

For “CD8-TNSALP after neuraminidase digestion (from UniProt P05186 18-505) (enzyme)”, the percent of relative activity in Weakly Bound fraction in assay [7] came to 4%. Further, the percent of relative activity in Strongly Bound fraction in [8] was 92%. Also, the percent of relative activity in Unbound fraction in assay [9] worked out at 4%.

Turning to “anchorless recombinant human TNSALP (human tissue-nonspecific alkaline phosphatase anchorless at the C-terminal) (from UniProt P05186 18-505) (enzyme)”, the percent of relative activity in Unbound fraction in assay [1] came out at 3%; in [5] it was 0%. The substance further came in with a percent strongly bound to the WGA column in assay [10] of 34%. In addition, the percent of relative activity in Strongly Bound fraction stood at 33% in assay [2] and 38% in [4]. For the same substance, the percent of relative activity in Weakly Bound fraction in assay [3] amounted to 59%; in assay [6], 66%.

For “anchorless rhTNSALP after neuraminidase digestion (from UniProt P05186 18-505) (enzyme)”, the percent of relative activity in Weakly Bound fraction in assay [7] was 9%. In assay [8], this substance gave a percent of relative activity in Strongly Bound fraction of 91%. The same substance returned a percent of relative activity in Unbound fraction in assay [9] of 0%.
